The values below come from article PMC7470129, “Synthesis and structure-activity relationships of cerebroside analogues as substrates of cerebroside sulphotransferase and discovery of a competitive inhibitor” (Journal of Enzyme Inhibition and Medicinal Chemistry, 2020).

As usually defined, the Km is the concentration of substrate that gives half-maximal velocity. What is called Vmax is the rate approached at saturating substrate.

Assay in all cases: capillary electrophoresis enzyme assay, Michaelis-Menten kinetics (Km)
The target of data set [1] is T1, galactosylceramide (cerebroside) sulphotransferase (CST) (Homo sapiens, UniProt Q99999).
T1 construct: gene GAL3ST1
T1 sequence (Q99999 1-423): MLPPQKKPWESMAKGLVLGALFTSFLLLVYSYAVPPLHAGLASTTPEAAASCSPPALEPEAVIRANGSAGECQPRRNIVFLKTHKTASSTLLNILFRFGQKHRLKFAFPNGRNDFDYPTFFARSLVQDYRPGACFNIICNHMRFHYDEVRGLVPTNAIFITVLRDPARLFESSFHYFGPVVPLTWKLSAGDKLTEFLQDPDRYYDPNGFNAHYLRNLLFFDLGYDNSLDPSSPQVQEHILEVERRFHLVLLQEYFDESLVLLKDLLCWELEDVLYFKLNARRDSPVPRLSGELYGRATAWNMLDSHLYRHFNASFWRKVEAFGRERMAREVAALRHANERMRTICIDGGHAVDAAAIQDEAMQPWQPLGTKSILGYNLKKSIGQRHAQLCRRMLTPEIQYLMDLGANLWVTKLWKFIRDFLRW
Format: biochemical.

Substrate in data set [2]: CCCCCCCCCCCCCC[C@@H](O)[C@@H](O)[C@H](CO[C@H]1O[C@H](CO)[C@H](O)[C@H](O)[C@H]1O)NC(=O)CCCC
Format: biochemical, Homo sapiens. As to conditions: PAPS.

Substrate in data set [3]: CCCCCCCCCCCCCCCCCCC(=O)N[C@@H](CO[C@H]1O[C@H](CO)[C@H](O)[C@H](O)[C@H]1O)[C@H](O)[C@H](O)CCCCCCCCCCCCCC
Format: biochemical, Homo sapiens. The settings on record: PAPS.

`CCCCCCCCCCCCCCCCCCCCCCCCCC(=O)N[C@@H](CO[C@H]1O[C@H](CO)[C@H](O)[C@H](O)[C@H]1O)[C@H](O)[C@H](O)CCCCCCCCCCCCCC` [compound 18, KRN7000]: the Km in data set [1] was 438 µM.
The same measure, in the same setting: for `CCCCCCCCCCCCCCCCCCCCCCCCCC(=O)N[C@@H](CO[C@@H]1O[C@H](CO)[C@H](O)[C@H](O)[C@H]1O)[C@H](O)[C@H](O)CCCCCCCCCCCCCC` [compound 10, β-KRN7000] the value was 550 µM.

B1: galactosylceramide (cerebroside) sulphotransferase (CST) (Homo sapiens) (protein)
chain: MLPPQKKPWESMAKGLVLGALFTSFLLLVYSYAVPPLHAGLASTTPEAAASCSPPALEPEAVIRANGSAGECQPRRNIVFLKTHKTASSTLLNILFRFGQKHRLKFAFPNGRNDFDYPTFFARSLVQDYRPGACFNIICNHMRFHYDEVRGLVPTNAIFITVLRDPARLFESSFHYFGPVVPLTWKLSAGDKLTEFLQDPDRYYDPNGFNAHYLRNLLFFDLGYDNSLDPSSPQVQEHILEVERRFHLVLLQEYFDESLVLLKDLLCWELEDVLYFKLNARRDSPVPRLSGELYGRATAWNMLDSHLYRHFNASFWRKVEAFGRERMAREVAALRHANERMRTICIDGGHAVDAAAIQDEAMQPWQPLGTKSILGYNLKKSIGQRHAQLCRRMLTPEIQYLMDLGANLWVTKLWKFIRDFLRW
Turning to B1, in data set [2], the Km stood at 358 µM and the Vmax was 0.0449 µmol/min/mg. Also, in data set [3], the Km amounted to 521 µM and the maximal velocity (Vmax) is 0.0519 µmol/min/mg.
